Data on one substance can be found in article PMC5016258.

Assay [1] concerns the target Angiotensin-(1-7) Mas receptor fused to enhanced yellow fluorescent protein (UniProt P04201). Description: radioligand binding.
Assay [2] addresses B2R-MasR heteromer on cells co-transfected with B2R-CFP and MasR-YFP (UniProt P30411). Nature of the assay: radioligand binding.
Sequence of UniProt P30411 (P30411 whole entry, chain 1 of 2): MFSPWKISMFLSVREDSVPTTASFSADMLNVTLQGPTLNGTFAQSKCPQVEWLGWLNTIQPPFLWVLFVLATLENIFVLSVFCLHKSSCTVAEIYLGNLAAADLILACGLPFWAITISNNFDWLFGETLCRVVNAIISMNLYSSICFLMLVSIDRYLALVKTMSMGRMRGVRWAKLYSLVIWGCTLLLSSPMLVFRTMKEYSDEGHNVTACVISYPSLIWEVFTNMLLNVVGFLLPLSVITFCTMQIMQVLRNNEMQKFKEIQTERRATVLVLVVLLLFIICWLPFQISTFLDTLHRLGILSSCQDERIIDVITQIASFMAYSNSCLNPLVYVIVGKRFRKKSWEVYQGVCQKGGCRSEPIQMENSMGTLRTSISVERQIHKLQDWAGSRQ
Sequence of UniProt P30411 (P04201 whole entry, chain 2 of 2, further chain): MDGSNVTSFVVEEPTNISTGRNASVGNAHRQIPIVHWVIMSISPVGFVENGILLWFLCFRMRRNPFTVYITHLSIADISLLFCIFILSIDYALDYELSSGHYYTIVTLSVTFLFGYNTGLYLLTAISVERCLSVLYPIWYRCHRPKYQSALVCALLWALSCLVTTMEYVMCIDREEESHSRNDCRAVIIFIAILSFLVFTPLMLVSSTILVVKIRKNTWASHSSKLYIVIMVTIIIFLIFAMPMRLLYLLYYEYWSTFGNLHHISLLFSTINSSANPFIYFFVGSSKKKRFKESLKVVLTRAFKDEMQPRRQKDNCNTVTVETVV

Sequence of UniProt P04201 (P04201 whole entry, the tested form may be a part): as the sequence (P04201 whole entry, chain 2 of 2, further chain) above

For orientation: Kd means the concentration at which binding is half-saturated. Consider Angiotensin-(1-7) (peptide), for which the figures for the equilibrium dissociation constant (Kd) in assay [1] and in assay [2] were 1.15 nM and 0.139 nM, respectively.
